Data reported in patent publication US20230293738A1 (Y MABS THERAPEUTICS, published 2023).
Where “and” joins values, the source holds several entries; their conditions need not be identical. Identical values can stand only once. Like-named read-outs stand apart in the source and are kept apart here.

How the values were obtained:
[1] = target: T1, human 4Ig-B7H3 (B7H3-4Ig-His) (human, UniProt Q5ZPR3 29-466); assay: SPR, Biacore T200, 4Ig-B7H3-His on CM5 chip, 1:1 fit
T1 construct: Recombinant His-tagged protein immobilised on a CM5 chip; also called 41g-B7H3; human 4Ig-B7-H3 (dominant isoform); not shown: His tag
T1 sequence: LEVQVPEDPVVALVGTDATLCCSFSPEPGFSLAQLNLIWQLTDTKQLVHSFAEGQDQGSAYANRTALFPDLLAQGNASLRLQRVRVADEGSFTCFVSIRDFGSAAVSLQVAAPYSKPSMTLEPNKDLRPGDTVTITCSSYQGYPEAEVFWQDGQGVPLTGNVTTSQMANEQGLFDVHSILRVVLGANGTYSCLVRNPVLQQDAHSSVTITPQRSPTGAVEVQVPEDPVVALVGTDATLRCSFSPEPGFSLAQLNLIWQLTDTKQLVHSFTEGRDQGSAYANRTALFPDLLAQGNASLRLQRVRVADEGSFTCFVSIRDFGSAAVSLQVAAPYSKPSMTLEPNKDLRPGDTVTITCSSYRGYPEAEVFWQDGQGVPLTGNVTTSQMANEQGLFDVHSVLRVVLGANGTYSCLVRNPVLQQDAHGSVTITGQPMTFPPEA
Experimental: (§1) Both human B7H3 41g and 21g proteins were dissolved in PBS (Phosphate-Buffered Saline) to make 0.1 mg/ml stock solution and stored in −80° C. B7-H3 proteins were immobilized onto the CM5 sensor chip using Amine Coupling Kit. Both proteins were diluted to 10 ug/ml with 10 mM Sodium acetate, pH 5.0. […] A blank immobilized surface was used as a control
(§2) Binding Assays: [0143] 1. Antibodies were diluted in HBS-EP buffer (10 mM HEPES, 150 mM NaCl, 3 mM EDTA, 0.05% Surfactant P20, pH 7.4) at varying concentrations (25-50-100-200-400 nM) prior to analysis. […] 2. Samples (60 ul) were injected over the sensor surface at a flow rate of 30 ul/min over 2 min. [0145] 3. Following completion of the association phase, dissociation was monitored in HBS-EP buffer for 10 min at the same flow rate. […] 4. At the end of each cycle, the surface was regenerated using 10 mM NaOH at a flow rate of 50 ul/min over 2×15 sec.

[2] = target: T2, recombinant monkey B7-H3 (monkey); assay: SPR, triplicate
T2 chain: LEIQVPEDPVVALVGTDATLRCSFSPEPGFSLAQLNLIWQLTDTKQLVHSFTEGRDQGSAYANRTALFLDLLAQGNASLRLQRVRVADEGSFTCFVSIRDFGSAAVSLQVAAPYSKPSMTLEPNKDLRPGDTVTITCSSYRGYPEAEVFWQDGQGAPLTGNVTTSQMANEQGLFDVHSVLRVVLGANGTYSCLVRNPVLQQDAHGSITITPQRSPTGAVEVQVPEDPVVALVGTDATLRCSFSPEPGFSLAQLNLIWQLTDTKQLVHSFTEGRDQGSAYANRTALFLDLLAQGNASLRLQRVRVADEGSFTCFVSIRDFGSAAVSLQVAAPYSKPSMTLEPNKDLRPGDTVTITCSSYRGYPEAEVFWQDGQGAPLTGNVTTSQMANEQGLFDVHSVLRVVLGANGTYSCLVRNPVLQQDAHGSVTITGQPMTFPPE

[3] = target: T3, human 2Ig-B7H3 (B7H3-2Ig-His) (human, UniProt Q5ZPR3 29-466); assay: SPR, Biacore T200, 2Ig-B7H3-His on CM5 chip, 1:1 fit; * beyond fitting limits; unconjugated 8H9, lot S219, Table 5 run
T3 construct: Recombinant His-tagged protein immobilised on a CM5 chip; also called 21g-B7H3; B7H3-21g-His; not shown: His tag
T3 sequence: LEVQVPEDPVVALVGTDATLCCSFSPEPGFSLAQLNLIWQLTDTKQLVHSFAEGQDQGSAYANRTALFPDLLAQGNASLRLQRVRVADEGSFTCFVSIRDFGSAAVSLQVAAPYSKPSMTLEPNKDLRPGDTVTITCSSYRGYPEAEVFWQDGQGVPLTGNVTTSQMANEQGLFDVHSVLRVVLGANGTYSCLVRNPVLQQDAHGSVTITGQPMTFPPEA

[4] = target: T3, human 2Ig-B7H3 (B7H3-2Ig-His); assay: SPR, Biacore T200, 2Ig-B7H3-His on CM5 chip, 1:1 fit; * beyond fitting limits
Experimental: as §1, §2
(§3) The data were analyzed by the 1:1 fitting model and default parameter setting for the rate constants using the Biacore T200 Evaluation Software, and the apparent association on rate constant (kon, ka), dissociation off rate constant (koff, kd) and equilibrium dissociation constant (KD=kd/ka) were calculated.

[5] = target: T3, human 2Ig-B7H3 (B7H3-2Ig-His); assay: SPR, Biacore T200, 2Ig-B7H3-His on CM5 chip, 1:1 fit
Experimental: as §1, §3

[6] = target: T1, human 4Ig-B7H3 (B7H3-4Ig-His); assay: SPR, Biacore T200, 4Ig-B7H3-His on CM5 chip, 1:1 fit; remark: listed apart in the source
Experimental: as §1, §3

[7] = target: T3, human 2Ig-B7H3 (B7H3-2Ig-His); assay: SPR, Biacore T200, 2Ig-B7H3-His on CM5 chip, 1:1 fit; unconjugated 8H9, lot S219, Table 3 run
[8] = target: T3, human 2Ig-B7H3 (B7H3-2Ig-His); assay: SPR, Biacore T200, 2Ig-B7H3-His on CM5 chip, 1:1 fit; * beyond fitting limits; unconjugated 8H9, lot S219, Table 3 run
[9] = target: T3, human 2Ig-B7H3 (B7H3-2Ig-His); assay: SPR, Biacore T200, 2Ig-B7H3-His on CM5 chip, 1:1 fit; remark: listed apart in the source
Experimental: as §1, §2, §3

[10] = target: T3, human 2Ig-B7H3 (B7H3-2Ig-His); assay: SPR, Biacore T200, 2Ig-B7H3-His on CM5 chip, 1:1 fit; unconjugated 8H9, lot S219, Table 5 run
Experimental: as §1, §2

Kd [1]: 4.07 nM and 3.78 nM and 3.69 nM | koff [1]: 0.000102 s⁻¹ and 0.000101 s⁻¹ and 9.48e-05 s⁻¹ | kon [1]: 25200 M⁻¹ s⁻¹ and 26700 M⁻¹ s⁻¹ and 25700 M⁻¹ s⁻¹ | t ½ [1]: 1.88 h and 1.91 h and 2.03 h | Kd [2]: 0.0016 nM | koff [2]: 1e-05 s⁻¹ | kon [2]: 6.5e+06 M⁻¹ s⁻¹ | koff [3]: < 1e-05 s⁻¹ | koff [4]: 2.38e-07 s⁻¹ and 5.68e-07 s⁻¹ | kon [5]: 53800 M⁻¹ s⁻¹ and 47100 M⁻¹ s⁻¹ | t ½ [5]: 72.9 days and 169 days | Kd [6]: 3.18 nM and 3.13 nM | koff [6]: 9.11e-05 s⁻¹ and 8.73e-05 s⁻¹ | kon [6]: 28600 M⁻¹ s⁻¹ and 27900 M⁻¹ s⁻¹ | t ½ [6]: 2.11 h and 2.21 h | Kd [7]: < 0.244 nM | koff [8]: < 1e-05 s⁻¹ | Kd [9]: 0.0123 nM | kon [9]: 43400 M⁻¹ s⁻¹ and 46200 M⁻¹ s⁻¹ and 40900 M⁻¹ s⁻¹ | Kd [10]: < 0.212 nM
B1: 8H9 antibody comprising a light chain according to SEQ ID No.: 2 and heavy chain according to SEQ ID No.: 1 (antibody, mouse IgG1, kappa, V domains shown)
VH: QVQLQQSGAELVKPGASVKLSCKASGYTFTNYDINWVRQRPEQGLEWIGWIFPGDGSTQYNEKFKGKATLTTDTSSSTAYMQLSRLTSEDSAVYFCARQTTATWFAYWGQGTLVTVSA
VL: DIVMTQSPATLSVTPGDRVSLSCRASQSISDYLHWYQQKSHESPRLLIKYASQSISGIPSRFSGSGSGSDFTLSINSVEPEDVGVYYCQNGHSFPLTFGAGTKLELKR
notes: Unconjugated mouse IgG1 mAb; also called m8H9; murine 8H9
